Data: PMC9482650, “Quantitative fragmentomics allow affinity mapping of interactomes” (Nature Communications, 2022)

T1: GRIP1_7, Q9Y3R0
T1 sequence (Q9Y3R0 999-1096, limits assumed, looked up): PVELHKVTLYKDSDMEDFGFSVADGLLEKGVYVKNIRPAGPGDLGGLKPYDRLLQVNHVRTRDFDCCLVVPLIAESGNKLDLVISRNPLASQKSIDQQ

T2: MPP7, Q5T2T1
T2 sequence (Q5T2T1 134-230, limits assumed, looked up): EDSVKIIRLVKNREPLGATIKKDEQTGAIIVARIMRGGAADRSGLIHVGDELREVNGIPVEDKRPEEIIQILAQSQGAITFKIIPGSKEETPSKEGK

T3: LRRC7, Q96NW7
T3 sequence (Q96NW7 1440-1537, limits assumed, looked up): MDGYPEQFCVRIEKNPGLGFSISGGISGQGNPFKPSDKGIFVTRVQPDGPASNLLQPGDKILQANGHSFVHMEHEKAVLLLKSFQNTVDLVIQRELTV

T4: NHERF3_3, Q5T2W1
T4 sequence (Q5T2W1 238-333, limits assumed, looked up): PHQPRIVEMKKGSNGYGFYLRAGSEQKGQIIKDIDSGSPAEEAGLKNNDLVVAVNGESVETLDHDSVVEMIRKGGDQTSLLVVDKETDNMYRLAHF

T5: GRIP1_3, Q9Y3R0
T5 sequence (Q9Y3R0 247-346, limits assumed, looked up): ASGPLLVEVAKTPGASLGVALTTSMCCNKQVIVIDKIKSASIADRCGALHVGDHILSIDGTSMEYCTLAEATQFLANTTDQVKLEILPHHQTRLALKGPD

T6: PCLO, Q9Y6V0
T6 sequence (Q9Y6V0 4491-4600, limits assumed, looked up): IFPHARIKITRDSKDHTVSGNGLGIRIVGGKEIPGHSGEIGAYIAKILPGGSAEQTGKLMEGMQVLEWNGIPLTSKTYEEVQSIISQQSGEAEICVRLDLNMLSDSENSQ

T7: MPDZ_5, O75970
T7 sequence (O75970 695-796, limits assumed, looked up): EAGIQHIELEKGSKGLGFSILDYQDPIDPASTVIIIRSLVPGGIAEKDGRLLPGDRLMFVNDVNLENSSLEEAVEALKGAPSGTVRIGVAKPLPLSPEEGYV

T8: NHERF3_4, Q5T2W1
T8 sequence (Q5T2W1 373-468, limits assumed, looked up): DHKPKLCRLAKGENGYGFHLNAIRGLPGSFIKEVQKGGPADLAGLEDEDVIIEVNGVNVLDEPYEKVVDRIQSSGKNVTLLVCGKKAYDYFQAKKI

T9: SNTA1, Q13424
T9 sequence (Q13424 82-180, limits assumed, looked up): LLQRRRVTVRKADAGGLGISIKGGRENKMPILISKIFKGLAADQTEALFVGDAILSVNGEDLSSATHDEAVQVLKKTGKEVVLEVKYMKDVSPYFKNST

T10: SYNJ2BP, P57105
T10 sequence (P57105 8-110, limits assumed, looked up): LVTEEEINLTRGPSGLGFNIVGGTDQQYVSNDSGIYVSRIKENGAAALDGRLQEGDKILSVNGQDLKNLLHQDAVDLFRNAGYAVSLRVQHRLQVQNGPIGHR

T11: TX1BP3, O14907
T11 sequence (O14907 10-122, limits assumed, looked up): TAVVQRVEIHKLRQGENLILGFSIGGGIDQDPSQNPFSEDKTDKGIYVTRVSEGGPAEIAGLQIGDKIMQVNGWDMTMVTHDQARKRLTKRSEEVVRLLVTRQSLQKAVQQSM

T12: RHPN1, Q8TCX5
T12 sequence (Q8TCX5 508-602, limits assumed, looked up): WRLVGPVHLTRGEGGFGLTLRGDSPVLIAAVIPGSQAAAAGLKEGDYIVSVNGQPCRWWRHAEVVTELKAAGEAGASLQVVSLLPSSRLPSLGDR

B1: PDGFRB, P09619 (peptide)
chain: PRAEAEDSFL
B2: CAVIN3, Q969G5 (peptide)
chain: EALLQMESVA
B3: GOT1L1, Q8NHS2 (peptide)
chain: EKKTLIGIKL

These binders were tested against T1, GRIP1_7, Q9Y3R0 (assay: holdup assay). Conditions: plain residues with an end cap or a label only (N-terminal biotin on a linker: ado-ado).
Set-up: key: below the threshold = too weak to quantify, mostly under pKd 3.1 to 4

Binder | pKd
B1 | below the threshold
B2 | below the threshold
B3 | below the threshold

Each binder was assayed against T2, MPP7, Q5T2T1 (assay: holdup assay). Conditions: plain residues with an end cap or a label only (N-terminal biotin on a linker: ado-ado).
Set-up: key: below the threshold = too weak to quantify, mostly under pKd 3.1 to 4

Binder | pKd
B1 | below the threshold
B2 | below the threshold
B3 | below the threshold

What follows are binders tested against T3, LRRC7, Q96NW7 (assay: holdup assay). Conditions: plain residues with an end cap or a label only (N-terminal biotin on a linker: ado-ado).
Set-up: key: below the threshold = too weak to quantify, mostly under pKd 3.1 to 4

Binder | pKd
B1 | 3.92
B2 | below the threshold
B3 | below the threshold

These binders were tested against LIMK2, P53671 (assay: holdup assay). Conditions: plain residues with an end cap or a label only (N-terminal biotin on a linker: ado-ado).
Set-up: key: below the threshold = too weak to quantify, mostly under pKd 3.1 to 4

Chain of LIMK2, P53671 (P53671 143-248): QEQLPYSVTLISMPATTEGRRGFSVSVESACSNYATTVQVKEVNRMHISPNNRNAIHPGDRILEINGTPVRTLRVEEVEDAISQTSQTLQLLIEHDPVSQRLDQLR

Binder | pKd
B1 | below the threshold
B2 | below the threshold
B3 | below the threshold

Each binder was assayed against DLG2_3, Q15700 (assay: holdup assay). Conditions: plain residues with an end cap or a label only (N-terminal biotin on a linker: ado-ado).
Set-up: key: below the threshold = too weak to quantify, mostly under pKd 3.1 to 4

Binder | pKd
B1 | below the threshold
B2 | 3.84
B3 | below the threshold

Each binder was assayed against DLG1_2, Q12959 (assay: holdup assay). Conditions: plain residues with an end cap or a label only (N-terminal biotin on a linker: ado-ado).
Set-up: key: below the threshold = too weak to quantify, mostly under pKd 3.1 to 4

Chain of DLG1_2, Q12959 (Q12959 314-412): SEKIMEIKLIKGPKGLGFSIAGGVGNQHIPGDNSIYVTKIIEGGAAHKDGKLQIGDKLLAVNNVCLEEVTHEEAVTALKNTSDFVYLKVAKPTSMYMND

Binder | pKd
B1 | 3.57
B2 | below the threshold
B3 | below the threshold

What follows are binders tested against HTRA1, Q92743 (assay: holdup assay). Conditions: plain residues with an end cap or a label only (N-terminal biotin on a linker: ado-ado).
Set-up: key: below the threshold = too weak to quantify, mostly under pKd 3.1 to 4

Chain of HTRA1, Q92743 (Q92743 360-477): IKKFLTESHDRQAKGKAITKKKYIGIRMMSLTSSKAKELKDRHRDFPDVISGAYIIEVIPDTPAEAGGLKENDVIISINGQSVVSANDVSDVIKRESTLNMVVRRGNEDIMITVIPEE

Binder | pKd
B1 | 4.27
B2 | 3.93
B3 | 4.48

Each binder was assayed against T4, NHERF3_3, Q5T2W1 (assay: holdup assay). Conditions: plain residues with an end cap or a label only (N-terminal biotin on a linker: ado-ado).
Set-up: key: below the threshold = too weak to quantify, mostly under pKd 3.1 to 4

Binder | pKd
B1 | below the threshold
B2 | below the threshold
B3 | below the threshold

What follows are binders tested against MAGI2_4, Q86UL8 (assay: holdup assay). Conditions: plain residues with an end cap or a label only (N-terminal biotin on a linker: ado-ado).
Set-up: key: below the threshold = too weak to quantify, mostly under pKd 3.1 to 4

Chain of MAGI2_4, Q86UL8 (Q86UL8 772-865): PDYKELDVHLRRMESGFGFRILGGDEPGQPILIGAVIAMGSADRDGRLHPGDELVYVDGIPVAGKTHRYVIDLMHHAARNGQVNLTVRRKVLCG

Binder | pKd
B1 | 3.6
B2 | below the threshold
B3 | below the threshold

Each binder was assayed against GRIP2_7, Q9C0E4 (assay: holdup assay). Conditions: plain residues with an end cap or a label only (N-terminal biotin on a linker: ado-ado).
Set-up: key: below the threshold = too weak to quantify, mostly under pKd 3.1 to 4

Chain of GRIP2_7, Q9C0E4 (Q9C0E4 934-1023): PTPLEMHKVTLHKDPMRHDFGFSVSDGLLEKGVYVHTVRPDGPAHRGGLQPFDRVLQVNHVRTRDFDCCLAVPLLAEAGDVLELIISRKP

Binder | pKd
B1 | below the threshold
B2 | below the threshold
B3 | below the threshold

What follows are binders tested against T5, GRIP1_3, Q9Y3R0 (assay: holdup assay). Conditions: plain residues with an end cap or a label only (N-terminal biotin on a linker: ado-ado).
Set-up: key: below the threshold = too weak to quantify, mostly under pKd 3.1 to 4

Binder | pKd
B1 | below the threshold
B2 | below the threshold
B3 | below the threshold

The binders below were run against Inadl_5, Q8NI35 (assay: holdup assay). Conditions: plain residues with an end cap or a label only (N-terminal biotin on a linker: ado-ado).
Set-up: key: below the threshold = too weak to quantify, mostly under pKd 3.1 to 4

Chain of Inadl_5, Q8NI35 (Q8NI35 673-780): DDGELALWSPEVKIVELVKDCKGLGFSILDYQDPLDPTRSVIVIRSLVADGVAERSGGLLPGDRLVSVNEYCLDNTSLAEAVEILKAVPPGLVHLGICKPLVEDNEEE

Binder | pKd
B1 | below the threshold
B2 | below the threshold
B3 | below the threshold

Each binder was assayed against DLG5_1, Q8TDM6 (assay: holdup assay). Conditions: plain residues with an end cap or a label only (N-terminal biotin on a linker: ado-ado).
Set-up: key: below the threshold = too weak to quantify, mostly under pKd 3.1 to 4

Chain of DLG5_1, Q8TDM6 (Q8TDM6 617-713): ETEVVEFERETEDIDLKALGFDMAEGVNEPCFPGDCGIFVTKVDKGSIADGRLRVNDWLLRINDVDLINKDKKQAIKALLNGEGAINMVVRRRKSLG

Binder | pKd
B1 | 3.48
B2 | below the threshold
B3 | below the threshold

Each binder was assayed against PDZRN4_1, Q6ZMN7 (assay: holdup assay). Conditions: plain residues with an end cap or a label only (N-terminal biotin on a linker: ado-ado).
Set-up: key: below the threshold = too weak to quantify, mostly under pKd 3.1 to 4

Chain of PDZRN4_1, Q6ZMN7 (Q6ZMN7 213-318): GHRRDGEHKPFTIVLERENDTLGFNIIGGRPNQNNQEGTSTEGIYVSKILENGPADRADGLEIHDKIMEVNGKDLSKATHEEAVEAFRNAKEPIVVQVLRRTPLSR

Binder | pKd
B1 | 3.69
B2 | below the threshold
B3 | below the threshold

Each binder was assayed against T6, PCLO, Q9Y6V0 (assay: holdup assay). Conditions: plain residues with an end cap or a label only (N-terminal biotin on a linker: ado-ado).
Set-up: key: below the threshold = too weak to quantify, mostly under pKd 3.1 to 4

Binder | pKd
B1 | below the threshold
B2 | below the threshold
B3 | below the threshold

These binders were tested against GRID2IP_2, A4D2P6 (assay: holdup assay). Conditions: plain residues with an end cap or a label only (N-terminal biotin on a linker: ado-ado).
Set-up: key: below the threshold = too weak to quantify, mostly under pKd 3.1 to 4

Chain of GRID2IP_2, A4D2P6 (A4D2P6 272-370): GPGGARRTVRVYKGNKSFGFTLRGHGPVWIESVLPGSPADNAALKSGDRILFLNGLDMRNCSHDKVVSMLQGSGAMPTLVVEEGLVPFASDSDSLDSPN

Binder | pKd
B1 | 3.84
B2 | below the threshold
B3 | below the threshold

The binders below were run against DLG2_2, Q15700 (assay: holdup assay). Conditions: plain residues with an end cap or a label only (N-terminal biotin on a linker: ado-ado).
Set-up: key: below the threshold = too weak to quantify, mostly under pKd 3.1 to 4

Binder | pKd
B1 | below the threshold
B2 | below the threshold
B3 | below the threshold

What follows are binders tested against T7, MPDZ_5, O75970 (assay: holdup assay). Conditions: plain residues with an end cap or a label only (N-terminal biotin on a linker: ado-ado).
Set-up: key: below the threshold = too weak to quantify, mostly under pKd 3.1 to 4

Binder | pKd
B1 | below the threshold
B2 | below the threshold
B3 | below the threshold

Each binder was assayed against T8, NHERF3_4, Q5T2W1 (assay: holdup assay). Conditions: plain residues with an end cap or a label only (N-terminal biotin on a linker: ado-ado).
Set-up: key: below the threshold = too weak to quantify, mostly under pKd 3.1 to 4

Binder | pKd
B1 | below the threshold
B2 | below the threshold
B3 | 4.74

What follows are binders tested against MAGI2_3, Q86UL8 (assay: holdup assay). Conditions: plain residues with an end cap or a label only (N-terminal biotin on a linker: ado-ado).
Set-up: key: below the threshold = too weak to quantify, mostly under pKd 3.1 to 4

Chain of MAGI2_3, Q86UL8 (Q86UL8 600-682): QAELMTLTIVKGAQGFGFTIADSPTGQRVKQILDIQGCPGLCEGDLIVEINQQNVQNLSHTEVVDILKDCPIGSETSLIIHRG

Binder | pKd
B1 | 3.55
B2 | below the threshold
B3 | below the threshold

The binders below were run against T9, SNTA1, Q13424 (assay: holdup assay). Conditions: plain residues with an end cap or a label only (N-terminal biotin on a linker: ado-ado).
Set-up: key: below the threshold = too weak to quantify, mostly under pKd 3.1 to 4

Binder | pKd
B1 | 3.59
B2 | below the threshold
B3 | below the threshold

What follows are binders tested against T10, SYNJ2BP, P57105 (assay: holdup assay). Conditions: plain residues with an end cap or a label only (N-terminal biotin on a linker: ado-ado).
Set-up: key: below the threshold = too weak to quantify, mostly under pKd 3.1 to 4

Binder | pKd
B1 | 3.93
B2 | 3.52
B3 | below the threshold

Each binder was assayed against T11, TX1BP3, O14907 (assay: holdup assay). Conditions: plain residues with an end cap or a label only (N-terminal biotin on a linker: ado-ado).
Set-up: key: below the threshold = too weak to quantify, mostly under pKd 3.1 to 4

Binder | pKd
B1 | 4.34
B2 | below the threshold
B3 | below the threshold

The binders below were run against MAST1, Q9Y2H9 (assay: holdup assay). Conditions: plain residues with an end cap or a label only (N-terminal biotin on a linker: ado-ado).
Set-up: key: below the threshold = too weak to quantify, mostly under pKd 3.1 to 4

Chain of MAST1, Q9Y2H9 (Q9Y2H9 962-1065): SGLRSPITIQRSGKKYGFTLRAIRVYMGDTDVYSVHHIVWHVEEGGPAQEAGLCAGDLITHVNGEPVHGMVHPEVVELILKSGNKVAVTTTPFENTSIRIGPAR

Binder | pKd
B1 | 3.93
B2 | 3.86
B3 | 3.95

The binders below were run against T12, RHPN1, Q8TCX5 (assay: holdup assay). Conditions: plain residues with an end cap or a label only (N-terminal biotin on a linker: ado-ado).
Set-up: key: below the threshold = too weak to quantify, mostly under pKd 3.1 to 4

Binder | pKd
B1 | 4.23
B2 | 3.69
B3 | below the threshold
